In patent publication US20080267971A1 (published 2008):

T1: human Angiopoietin-1 (human, UniProt Q15389 20-498, limits assumed)
T1 construct: Bought recombinant protein (R&D Systems 293-AN-025/CF) or supernatant of transfected 293F cells; also called Ang-1; recombinant Ang-1
T1 sequence: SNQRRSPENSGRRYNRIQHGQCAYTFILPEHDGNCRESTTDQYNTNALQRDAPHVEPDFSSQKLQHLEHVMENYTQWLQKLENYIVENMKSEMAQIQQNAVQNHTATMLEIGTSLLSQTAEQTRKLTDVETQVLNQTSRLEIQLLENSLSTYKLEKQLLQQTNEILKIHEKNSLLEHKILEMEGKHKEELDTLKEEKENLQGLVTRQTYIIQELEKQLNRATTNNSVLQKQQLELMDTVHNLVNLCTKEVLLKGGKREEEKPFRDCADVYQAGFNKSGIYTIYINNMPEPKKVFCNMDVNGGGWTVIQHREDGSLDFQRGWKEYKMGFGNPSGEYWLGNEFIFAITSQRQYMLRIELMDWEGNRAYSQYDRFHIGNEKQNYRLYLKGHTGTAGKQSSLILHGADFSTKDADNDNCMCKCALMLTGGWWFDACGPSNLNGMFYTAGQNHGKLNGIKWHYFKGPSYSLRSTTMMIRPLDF

B1: human Angiopoietin-2 (ligand)
chain: YNNFRKSMDSIGKKQYQVQHGSCSYTFLLPEMDNCRSSSSPYVSNAVQRDAPLEYDDSVQRLQVLENIMENNTQWLMKLENYIQDNMKKEMVEIQQNAVQNQTAVMIEIGTNLLNQTAEQTRKLTDVEAQVLNQTTRLELQLLEHSLSTNKLEKQILDQTSEINKLQDKNSFLEKKVLAMEDKHIIQLQSIKEEKDQLQVLVSKQNSIIEELEKKIVTATVNNSVLQKQQHDLMETVNNLLTMMSTSNSAKDPTVAKEEQISFRDCAEVFKSGHTTNGIYTLTFPNSTEEIKAYCDMEAGGGGWTIIQRREDGSVDFQRTWKEYKVGFGNPSGEYWLGNEFVSQLTNQQRYVLKIHLKDWEGNEAYSLYEHFYLSSEELNYRIHLKGLTGTAGKISSISQPGNDFSTKDGDNDKCICKCSQMLTGGWWFDACGPSNLNGMYYPQRQNTNKFNGIKWYYWKGSGYSLKATTMMIRPADF
notes: Mostly bought recombinant protein (R&D Systems 623-AM/CF, 623-AN; biotinylated BT623) or supernatant of transfected 293F cells; also called Ang-2; rhAng-2
B2: recombinant human Tie2/Fc fusion protein (Fc fusion, UniProt Q02763 23-745, looked up, not shown: a dimerising Fc or GST)
chain: AMDLILINSLPLVSDAETSLTCIASGWRPHEPITIGRDFEALMNQHQDPLEVTQDVTREWAKKVVWKREKASKINGAYFCEGRVRGEAIRIRTMKMRQQASFLPATLTMTVDKGDNVNISFKKVLIKEEDAVIYKNGSFIHSVPRHEVPDILEVHLPHAQPQDAGVYSARYIGGNLFTSAFTRLIVRRCEAQKWGPECNHLCTACMNNGVCHEDTGECICPPGFMGRTCEKACELHTFGRTCKERCSGQEGCKSYVFCLPDPYGCSCATGWKGLQCNEACHPGFYGPDCKLRCSCNNGEMCDRFQGCLCSPGWQGLQCEREGIQRMTPKIVDLPDHIEVNSGKFNPICKASGWPLPTNEEMTLVKPDGTVLHPKDFNHTDHFSVAIFTIHRILPPDSGVWVCSVNTVAGMVEKPFNISVKVLPKPLNAPNVIDTGHNFAVINISSEPYFGDGPIKSKKLLYKPVNHYEAWQHIQVTNEIVTLNYLEPRTEYELCVQLVRRGEGGEGHPGPVRRFTTASIGLPPPRGLNLLPKSQTTLNLTWQPIFPSSEDDFYVEVERRSVQKSDQQNIKVPGNLTSVLLNNLHPREQYVVRARVNTKAQGEWSEDLTAWTLSDILPPQPENIKISNITHSSAVISWTILDGYSISSITIRYKVQGKNEDQHVDVKIKNATITQYQLKGLEPETAYQVDIFAENNIGSSNPAFSHELVTLPESQAPADLGGGK
notes: Bought fusion protein; also called hTie2/Fc; soluble Tie2/Fc

Assays:
[1] = molecular target: B2; assay: FACS competition: binding of His-tagged recombinant human Ang-2 to Tie2 on HEK293F/Tie2 transfectants, soluble Tie2/Fc titrated, n = 3
Description: (§1) Cell suspension of 4 million cells/mL in FACS Buffer were prepared, and then aliquoted to a 96-well polypropylene plate with 50 ul per well. […] Cells were washed by centrifuging the plate at 1,200 rpm for 5 minutes, removing the supernatant by aspirating, and resuspending the cells with 200 ul per well of FACS Buffer. Washing procedures were repeated twice. The cells were then suspended with 100 ul of mouse Anti-6×-Histidine antibody diluted to 2 ug/ml in FACS Buffer, and incubated at room temperature for 30 minutes. After washing, the cells were suspended in 100 ul of PE-conjugated goat anti-mouse-IgG, which was diluted 1:100 in FACS Buffer, for incubation at room temperature for 30 minutes. The volume of the samples were brought to 300 ul with FACS Buffer, and measured with FACS Calibur.

human Angiopoietin-1 = molecular target: T1, human Angiopoietin-1; assay: FACS: inhibition of Ang-1 binding to HEK293F/Tie2 cells
Description: as §1

human Angiopoietin-2 = molecular target: B1; assay: FACS: inhibition of Ang-2 binding to HEK293F/Tie2 cells
Description: as §1

| binding result [1] | EC50 (human Angiopoietin-1) [nM] | EC50 (human Angiopoietin-2) [nM] | Binder |
| --- | --- | --- | --- |
| binds |  |  | B1 |
|  | 18.7 | 25.7 | B2 |
